Here are results for 7 molecules from patent US6077680A (The University of Florida, dated 2000).

As usually defined, the IC50 is the point on the concentration scale where inhibition reaches its midpoint. As a reminder, the Kd is the constant that tells how readily two partners part at equilibrium.

Data set [1] deals with Kv1.1, Kv1.2, Kv1.5, Kv3.1, hKCa4 relative to Kv1.3. Format: cell-based.
The target in a further data set is Kv3.1 (Mus musculus, UniProt P15388). Format: cell-based.
For data set [2], the target named is Kv1.3 channels in Jurkat T lymphocytes (Homo sapiens, UniProt P22001). It is filed as binding.
Data set [3] relates to pepsin A, pancreatic elastase, subtilisin, trypsin-chymotrypsin, thermolysin.
In data set [4] the target is T1, Kv1.3 (Mus musculus, UniProt P16390). It is filed as cell-based.
Data set [5] concerns the target T1, Kv1.3. Nature of the data set: cell-based. It is filed as cell-based.
The target in another data set is Kv1.2 (Rattus norvegicus, UniProt P63142). Format: cell-based.
Data set [6] concerns rat brain membrane K channels (primarily Kv1.2). It is filed as binding.
The target of another data set is Kv1.5 (Homo sapiens, UniProt P22460). It is filed as cell-based.
Another data set concerns the target IKCa (hKCa4) (Homo sapiens, UniProt O15554). Format: cell-based.
In data set [7] the target is cloned Kv1.3 channel, wild type.
For data set [8] the target is unchanged. The source holds these as a separate data set.
Data set [9] has as its target rat brain membrane K channels (delayed rectifier, primarily Kv1.2) (rat) (UniProt P63142).
Data set [10] has the same target. The source holds these as a separate data set.
The target is the same in data set [11]. Put plainly: IC50 ratio on brain delayed rectifier K channels (table title); assay not given.
Data set [12] addresses IKCa channel of activated human T-cells (human) (UniProt O15554). Put plainly: whole-cell patch clamp block, activated human T-cells; called Kd in paragraph 470.
Another data set has as its target Kv1.3 H404L. Nature of the data set: electrophysiological block of current; Kd from fraction of unblocked current.
The target of another data set is Kv1.3 H404T. The data set is described as above.
The target of a further data set is Kv1.3 D386N. The description is as above.
Data set [13] has as its target Kv1.3 channel printed as G30. The data set is described as above.
The next data set has as its target Kv1.3 D386K. Described as above.
The target of the next data set is Kv1.3 G380E. The data set is described as above.
The target of the next data set is Kv1.3 H404Y. The data set is described as above.
For data set [14], the target named is cloned Kv1.3 channel, wild type. Nature of the data set: patch clamp block of Kv1.3. (In general: In patch-clamp work, channel activity is measured electrically.)
Data set [15] has the same target. Nature of the data set: block of cloned channel.
Data set [16] concerns the target cloned Kv1.1 channel. Nature of the data set: block of cloned channel.
The target of data set [17] is cloned Kv1.3 channel, wild type. The source holds these as a separate data set.
In data set [18] the target is cloned Kv1.5 channel. Nature of the data set: patch clamp block of cloned channel.
For data set [19], the target named is cloned Kv3.1 channel. Put plainly: patch clamp block of cloned channel.
Data set [20] addresses cloned Kv1.3 channel, wild type. This is another data set of the same source.
The target in data set [21] is cloned Kv1.2 channel.
The target of data set [22] is cloned Kv1.3 channel, wild type. The source holds these as a separate data set.
Data set [23] addresses cloned Kv1.2 channel. The source holds these as a separate data set.
In data set [24] the target is cloned Kv1.3 channel, wild type. Put plainly: whole-cell patch clamp block, cell line stably expressing the channel.
For data set [25], the target named is cloned Kv1.5 channel. The description is as above.
Data set [26] deals with cloned Kv1.2 channel. The data set is described as above.
Data set [27] concerns the target cloned Kv1.1 channel. Described as above.
Data set [28] addresses cloned Kv3.1 channel. The description is as above.
For data set [29], the target named is cloned Kv1.1 channel.
Data set [30] has as its target cloned Kv1.1 channel. This is another data set of the same source.
The target of data set [31] is cloned Kv1.3 channel, wild type. The source holds these as a separate data set.
Data set [32] has as its target cloned Kv1.1 channel. This is another data set of the same source.
Data set [33] has as its target cloned Kv1.2 channel. Put plainly: block of cloned channel.
Data set [34] concerns the target cloned Kv1.3 channel, wild type. This is another data set of the same source.
Data set [35] concerns the target small conductance calcium-activated potassium channel in T-cells. Put plainly: block of channel in T-cells.
In data set [36] the target is rat brain membrane K channels (delayed rectifier, primarily Kv1.2) (rat) (UniProt P63142). This is another data set of the same source.
The test system of another data set is Kv1.3(D386→K). It is filed as cell-based.
Data set [37] has as its target Kv1.3 potassium channels in Jurkat T lymphocytes (Homo sapiens, UniProt P22001). Format: cell-based.
Data set [38] addresses T2, rat brain membrane K channels (delayed rectifier, primarily Kv1.2) (rat, UniProt P63142). Nature of the data set: 125I-DTX displacement, rat brain membranes.
The target of data set [39] is T2, rat brain membrane K channels (delayed …). Nature of the data set: IC50 ratio on brain delayed rectifier K channels (table title); assay not given.
Data set [40] shares this target.
The target of data set [41] is T3, Kv1.3 potassium channel of human T lymphocytes (human, UniProt P22001). Nature of the data set: 125I-ChTX displacement, Jurkat T lymphocytes.
The target in data set [42] is T3, Kv1.3 potassium channel of human T …. Put plainly: 125I-ChTX displacement, Jurkat T lymphocytes. The source holds these as a separate data set.

Values joined by “and” are separate entries in the source; they are usually repeats but may differ in a detail not shown here. Equal values may be shown once. Read-outs that look alike come from different tables or passages of the source. Bridges are numbered along the chain shown (N, C = ends). Where no end group is shown, it is not given here.

T1 sequence (P16390 whole entry): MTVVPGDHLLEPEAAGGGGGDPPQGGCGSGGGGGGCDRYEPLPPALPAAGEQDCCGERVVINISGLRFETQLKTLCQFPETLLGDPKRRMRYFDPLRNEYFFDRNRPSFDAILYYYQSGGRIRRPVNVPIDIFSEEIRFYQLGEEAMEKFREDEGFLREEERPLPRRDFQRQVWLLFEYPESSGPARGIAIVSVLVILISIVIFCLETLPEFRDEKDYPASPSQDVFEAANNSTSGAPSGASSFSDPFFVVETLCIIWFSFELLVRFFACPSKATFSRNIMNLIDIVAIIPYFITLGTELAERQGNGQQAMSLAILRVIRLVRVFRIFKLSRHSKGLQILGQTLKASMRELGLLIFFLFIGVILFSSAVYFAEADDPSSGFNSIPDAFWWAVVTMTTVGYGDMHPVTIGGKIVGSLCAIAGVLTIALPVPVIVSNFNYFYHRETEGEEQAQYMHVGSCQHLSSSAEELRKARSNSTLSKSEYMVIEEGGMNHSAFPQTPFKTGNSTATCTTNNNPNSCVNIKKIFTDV
Kv1.3 potassium channels in Jurkat T lymphocytes, sequence (P22001 whole entry): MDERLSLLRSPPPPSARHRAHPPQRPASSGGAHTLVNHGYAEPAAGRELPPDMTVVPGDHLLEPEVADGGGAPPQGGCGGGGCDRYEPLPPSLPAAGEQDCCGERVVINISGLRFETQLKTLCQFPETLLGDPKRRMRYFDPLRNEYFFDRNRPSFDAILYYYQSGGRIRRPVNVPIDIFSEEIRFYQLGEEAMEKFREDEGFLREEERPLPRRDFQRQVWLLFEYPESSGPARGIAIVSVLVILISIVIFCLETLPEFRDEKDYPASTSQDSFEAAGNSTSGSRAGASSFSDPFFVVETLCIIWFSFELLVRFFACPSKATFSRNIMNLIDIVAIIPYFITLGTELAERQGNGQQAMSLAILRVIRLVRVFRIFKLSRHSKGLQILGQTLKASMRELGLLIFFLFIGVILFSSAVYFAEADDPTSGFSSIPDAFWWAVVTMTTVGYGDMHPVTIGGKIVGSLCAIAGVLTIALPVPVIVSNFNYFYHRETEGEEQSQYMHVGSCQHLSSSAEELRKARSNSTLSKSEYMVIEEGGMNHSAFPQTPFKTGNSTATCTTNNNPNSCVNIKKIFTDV
IKCa (hKCa4), sequence (O15554 whole entry): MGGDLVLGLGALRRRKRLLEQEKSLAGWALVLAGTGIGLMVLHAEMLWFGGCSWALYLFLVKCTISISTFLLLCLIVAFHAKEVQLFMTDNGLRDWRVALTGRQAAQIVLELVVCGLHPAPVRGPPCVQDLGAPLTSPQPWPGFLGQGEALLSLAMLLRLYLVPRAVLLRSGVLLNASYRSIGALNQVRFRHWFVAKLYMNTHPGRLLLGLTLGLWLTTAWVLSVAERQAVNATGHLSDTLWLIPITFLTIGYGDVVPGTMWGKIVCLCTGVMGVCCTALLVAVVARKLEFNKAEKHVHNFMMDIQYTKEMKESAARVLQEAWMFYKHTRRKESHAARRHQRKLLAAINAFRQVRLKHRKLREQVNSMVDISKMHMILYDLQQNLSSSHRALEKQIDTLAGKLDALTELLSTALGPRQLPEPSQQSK
Kv1.2, sequence (P63142 whole entry): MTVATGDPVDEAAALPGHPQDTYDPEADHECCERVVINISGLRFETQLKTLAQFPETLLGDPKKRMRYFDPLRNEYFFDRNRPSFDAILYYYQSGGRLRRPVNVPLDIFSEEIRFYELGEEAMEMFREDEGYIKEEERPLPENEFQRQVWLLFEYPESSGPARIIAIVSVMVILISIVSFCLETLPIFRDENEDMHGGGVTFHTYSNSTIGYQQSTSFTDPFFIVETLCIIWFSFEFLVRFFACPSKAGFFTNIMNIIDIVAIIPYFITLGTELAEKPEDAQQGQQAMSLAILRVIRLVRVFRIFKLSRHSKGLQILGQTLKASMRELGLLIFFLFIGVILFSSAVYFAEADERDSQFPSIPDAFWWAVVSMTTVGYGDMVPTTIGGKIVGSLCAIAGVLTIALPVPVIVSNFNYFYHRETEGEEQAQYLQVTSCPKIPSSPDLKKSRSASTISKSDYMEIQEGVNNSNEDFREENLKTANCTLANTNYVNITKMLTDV
Kv3.1, sequence (P15388 whole entry): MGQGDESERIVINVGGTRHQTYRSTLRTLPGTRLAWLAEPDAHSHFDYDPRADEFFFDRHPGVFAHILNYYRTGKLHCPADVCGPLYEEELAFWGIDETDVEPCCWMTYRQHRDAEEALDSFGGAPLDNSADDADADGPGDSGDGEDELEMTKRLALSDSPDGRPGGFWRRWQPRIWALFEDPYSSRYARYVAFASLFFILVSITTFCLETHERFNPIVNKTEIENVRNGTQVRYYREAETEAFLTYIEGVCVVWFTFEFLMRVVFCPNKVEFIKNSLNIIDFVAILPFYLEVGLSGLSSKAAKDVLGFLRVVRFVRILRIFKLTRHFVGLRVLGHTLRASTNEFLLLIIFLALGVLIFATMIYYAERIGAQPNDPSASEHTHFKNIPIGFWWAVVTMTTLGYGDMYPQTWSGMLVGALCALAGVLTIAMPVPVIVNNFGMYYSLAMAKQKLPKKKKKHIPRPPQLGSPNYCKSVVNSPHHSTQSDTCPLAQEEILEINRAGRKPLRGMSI
Kv1.5, sequence (P22460 whole entry): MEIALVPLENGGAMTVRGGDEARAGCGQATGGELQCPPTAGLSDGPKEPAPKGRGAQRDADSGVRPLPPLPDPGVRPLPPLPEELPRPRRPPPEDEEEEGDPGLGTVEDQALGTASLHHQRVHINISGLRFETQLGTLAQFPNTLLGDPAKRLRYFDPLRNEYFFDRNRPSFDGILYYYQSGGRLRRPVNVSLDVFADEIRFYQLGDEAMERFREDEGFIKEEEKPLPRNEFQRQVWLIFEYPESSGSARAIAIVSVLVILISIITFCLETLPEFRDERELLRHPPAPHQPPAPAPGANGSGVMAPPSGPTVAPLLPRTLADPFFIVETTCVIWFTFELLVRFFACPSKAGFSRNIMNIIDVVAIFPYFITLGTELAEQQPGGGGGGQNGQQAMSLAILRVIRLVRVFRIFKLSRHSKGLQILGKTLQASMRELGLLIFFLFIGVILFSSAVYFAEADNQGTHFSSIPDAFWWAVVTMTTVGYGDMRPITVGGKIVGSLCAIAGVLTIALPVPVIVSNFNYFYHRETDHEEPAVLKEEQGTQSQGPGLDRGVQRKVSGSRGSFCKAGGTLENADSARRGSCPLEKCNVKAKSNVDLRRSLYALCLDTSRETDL
Kv1.3 channels in Jurkat T lymphocytes, sequence (P22001 whole entry): as the sequence (P22001 whole entry) above

Take `CC[C@H](C)[C@@H]1NC(=O)[C@@H](NC(=O)[C@H](CO)NC(=O)[C@@H](N)CCCNC(=N)N)CSSC[C@@H](C(=O)O)NC(=O)[C@H]([C@@H](C)O)NC(=O)CNC(=O)[C@@H]2CSSC[C@@H]3NC(=O)[C@H](CCC(N)=O)NC(=O)[C@H](Cc4ccccc4)NC(=O)[C@H](C)NC(=O)[C@H]([C@@H](C)O)NC(=O)[C@H](CSSC[C@H](NC(=O)[C@H](Cc4ccccc4)NC(=O)[C@H](CO)NC(=O)[C@H](CC(C)C)NC(=O)[C@H](CCCNC(=N)N)NC(=O)[C@H](Cc4ccc(O)cc4)NC(=O)[C@H](CCCCN)NC(=O)[C@H](CCSC)NC(=O)[C@H](CO)NC(=O)[C@H](Cc4cnc[nH]4)NC(=O)[C@H](CCCCN)NC3=O)C(=O)N[C@@H](CCCNC(=N)N)C(=O)N[C@@H](CCCCN)C(=O)N[C@@H]([C@@H](C)O)C(=O)N2)NC(=O)[C@H](CCCNC(=N)N)NC(=O)[C@H](CO)NC(=O)[C@H](CCCCN)NC(=O)[C@@H]2CCCN2C(=O)[C@H]([C@@H](C)CC)NC(=O)[C@H]([C@@H](C)O)NC(=O)[C@H](CC(=O)O)NC1=O` [ShK]: the “other closely related channels less sensitive than Kv1.3” value in data set [1] is given as above 100 fold. Also, on Kv3.1, the “sensitivity of Kv3.1, in words” value is on record as “resistant to the peptide”. Also, the “Hill coefficient, [125I]-ChTX binding” value in [2] is recorded as 0.89±0.17. The “resistance to proteolysis by porcine pepsin A, pancreatic elastase and subtilisin” value in data set [3] ([…], 30° C., pH 3.0 (pepsin A), pH 6.5 (elastase, subtilisin)) is recorded as “completely resistant to proteolysis”. The “cleavage by trypsin-chymotrypsin mixture or thermolysin” value in [3] (pH 6.5) is recorded as “readily cleaved”. The “Hill coefficient, Kv1.3 block” value at Kv1.3 [4] is on record as “close to unity”. Besides, the “washout from the receptor” value at Kv1.3 [5] is given as “binds almost irreversibly”. Also, the “Kv1.2 less sensitive than Kv1.3” value at Kv1.2 turned out to be 100 fold. For the same molecule, the ΔF in [6] worked out at 0.0. In addition, the IC50 in data set [6] (read-out: IC50 Rat Brain 125I-CTX) was 8 nM. Moreover, the “sensitivity of Kv1.5, in words” value on Kv1.5 is recorded as “resistant to the peptide”. Besides, the “hKCa4 less sensitive than Kv1.3” value at IKCa (hKCa4) was determined as 100 fold.
In the case of “ShK toxin (synthetic, wild type) (peptide)”, the Kd was 0.6 nM and 0.3 nM in data set [7]; 0.1 nM in data set [8]; 28 nM in [12]; 3.2 nM with Kv1.3 H404L; 0.3 nM with Kv1.3 H404T; 0.4 nM in the data set with Kv1.3 D386N. For the same molecule, the Kd in [13] was determined as 0.6 nM; with Kv1.3 D386K, 1.8 nM; with Kv1.3 G380E, 0.6 nM; in the data set with Kv1.3 H404Y it was 4 nM; in data set [14] it was 0.011 nM; in data set [15], 0.01 nM. Further, the dissociation constant Kd in the data set with cloned Kv1.1 channel [16] was 0.01 nM; in [17] it was 0.7 nM; in the data set with cloned Kv1.5 channel [18] it was above 1000 nM; with cloned Kv3.1 channel [19] it was above 1000 nM; in [20] it was 0.012 nM; with cloned Kv1.2 channel [21] it was 9 nM. This molecule also returned an IC50 in data set [9] of 8 nM. Also, the free energy difference of binding in data set [10] and in data set [11] was 0 kcal/mol in each case. For the same molecule, in [22], the block of Kv1.3 current, whole-cell patch clamp (IC50) was found to be 0.012 nM. The molecule further yielded a block of Kv1.2 current, whole-cell patch clamp with cloned Kv1.2 channel [23] of 100 fold.
On to ShK-K22DAP (peptide), for which the Kd was 0.023 nM in data set [24]; above 100 nM with cloned Kv1.5 channel [25]; 39 nM with cloned Kv1.2 channel [26]; 3 nM with cloned Kv1.1 channel [27]; above 100 nM with cloned Kv3.1 channel [28]; 5 nM with cloned Kv1.2 channel [33]. Moreover, the Kd in data set [35] stood at 10 nM. In the data set with cloned Kv1.1 channel [29], this molecule returned a potency on Kv1.1 against its potency on Kv1.3 of 40 fold. Also, in the data set with cloned Kv1.1 channel [30], the loss of potency against Kv1.1 was above 100 fold. Besides, the block of Kv1.3 current, whole-cell patch clamp (IC50) in data set [31] was 0.03 nM. For the same molecule, the block of Kv1.1 current, whole-cell patch clamp in the data set with cloned Kv1.1 channel [32] came out at 30 fold. In [34], the half-blocking dose for Kv1.3 stood at 28 pM. The free energy difference of binding in data set [36] was 2.23 kcal/mol.
Regarding `CCCC[C@@H]1NC(=O)[C@H](CCSC)NC(=O)[C@H](CO)NC(=O)[C@H](Cc2c[nH]cn2)NC(=O)[C@H](CCCCN)NC(=O)[C@@H]2CSSC[C@@H]3NC(=O)[C@H]([C@@H](C)O)NC(=O)[C@H](CCCCN)NC(=O)[C@H](CCCNC(=N)N)NC(=O)[C@H](CSSC[C@H](NC(=O)[C@H](CCCNC(=N)N)NC(=O)[C@H](CO)NC(=O)[C@H](CCCCN)NC(=O)[C@@H]4CCCN4C(=O)[C@H]([C@@H](C)CC)NC(=O)[C@H]([C@@H](C)O)NC(=O)[C@H](CC(=O)O)NC(=O)[C@H]([C@@H](C)CC)NC(=O)[C@@H](NC(=O)[C@H](CO)NC(=O)[C@@H](N)CCCNC(=N)N)CSSC[C@@H](C(=O)O)NC(=O)[C@H]([C@@H](C)O)NC(=O)CNC3=O)C(=O)N[C@@H]([C@@H](C)O)C(=O)N[C@@H](C)C(=O)N[C@@H](Cc3ccccc3)C(=O)N[C@@H](CCC(N)=O)C(=O)N2)NC(=O)[C@H](Cc2ccccc2)NC(=O)[C@H](CO)NC(=O)[C@H](CC(C)C)NC(=O)[C@H](CCCNC(=N)N)NC(=O)[C@H](Cc2ccc(O)cc2)NC1=O` [K22Nle], the “ΔΔG (coupling energy), mutant cycle” value in the data set with Kv1.3(D386→K) is 0.053 kcal/mol. In addition, in [37], the “Equipotent Molar Ration (Analog IC50 /ShK IC50) Lymphocyte” value is recorded as above 23 and the “reduction of affinity (IC50) for Kv1.3 relative to ShK toxin” value is “more than 23 fold”. Further, in [6], the “Equipotent Molar Ration (Analog IC50 /ShK IC50) Rat brain” value was above 250, the “IC50 Ratio” value is given as above 250 and the ΔF is given as above 3.23.

B1: N-alpha-acetyl ShK toxin (peptide)
peptide: Ac-RSCIDTIPKSRCTAFQCKHSMKYRLSFCRKTCGTC
modifications: ends and bridges not checked
Turning to B1, the “IC50 ratio (analog IC50/ShK IC50)” value in data set [38] and in data set [39] was 1 ratio in each case.

B2: ShK analog 106, Lactam Bridge (K14 -D18) (peptide)
peptide: RSCIDTIPKSRCTKFQCDHSMKYRLSFCRKTCGTC
modifications: lactam 14-18; ends not checked
Take B2: the “IC50 ratio (analog IC50/ShK IC50)” value in [40] stood at 1.63 ratio.

B3: ShK toxin (synthetic, wild type) (peptide)
peptide: RSCIDTIPKSRCTAFQCKHSMKYRLSFCRKTCGTC
Consider B3, for which the IC50 in data set [41] was 0.04 nM; in data set [42], 0.032 nM.
